The results in this text go back to PMC3711072, “The Activity of CCL18 is Principally Mediated through Interaction with Glycosaminoglycans” (Frontiers in Immunology, 2013).

Sequences and labels used below:
T1: CCR3 (UniProt P51677 1-355)
T1 sequence (looked up): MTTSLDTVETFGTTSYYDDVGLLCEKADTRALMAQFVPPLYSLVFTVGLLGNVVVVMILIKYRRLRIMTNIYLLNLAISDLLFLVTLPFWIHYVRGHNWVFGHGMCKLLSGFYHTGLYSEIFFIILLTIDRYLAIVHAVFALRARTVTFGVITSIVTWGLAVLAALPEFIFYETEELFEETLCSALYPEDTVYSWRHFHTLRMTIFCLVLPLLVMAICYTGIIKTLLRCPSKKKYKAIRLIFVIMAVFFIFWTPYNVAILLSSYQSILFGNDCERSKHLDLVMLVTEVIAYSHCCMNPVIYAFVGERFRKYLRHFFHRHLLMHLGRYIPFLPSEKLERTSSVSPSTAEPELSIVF

T2: Radiolabeled CCL18 (125I-CCL18) (human, UniProt P55774 21-89, 125I label (radiolabeled; residue not stated))
T2 construct: CCL18, radioiodinated; also called tracer; source: bought: Anawa
T2 sequence (looked up): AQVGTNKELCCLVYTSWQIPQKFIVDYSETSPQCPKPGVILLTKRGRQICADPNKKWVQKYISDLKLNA

B1: CC chemokine ligand 18 (CCL18) (ligand, human, UniProt P55774 21-89, looked up)
chain: T2 sequence (looked up)
B2: Evasin-1 (natural protein)
chain: EDDEDYGDLGGCPFLVAENKTGYPTIVACKQDCNGTTETAPNGTRCFSIGDEGLRRMTANLPYDCPLGQCSNGDCIPKETYEVCYRRNWRDKKN
modifications: glycosylated (sites not given)
notes: source: produced as previously described (18, 19)
B3: CCL11 (ligand)
chain: not shown
notes: chemokine CCL11; source: obtained from PeptroTech or produced as previously described (17)
B4: Evasin-4 (natural protein)
chain: EVPQMTSSSAPDLEEEDDYTAYAPLTCYFTNSTLGLLAPPNCSVLCNSTTTWFNETSPNNASCLLTVDFLTQDAILQENQPYNCSVGHCDNGTCAGPPRHAQCW
modifications: glycosylated (sites not given)
notes: as for B2

“And” between values parts separate entries of the source, which are not always exact repeats. Equal values may be shown once.

The target in experiment [1] is T1, CCR3. The experiment is described as follows: cell-based or functional assay.
The target in experiment [2] is T2, Radiolabeled CCL18 (125I-CCL18). The experiment is described as follows: radioligand binding; equilibrium competition: increasing concentration of Evasin against 125I-CCL18 binding to L1.2/CCR3 transfectants; Evasin binds the tracer. Conditions: both partners purified.
Experiment [3] has as its target B1. The experiment is described as follows: SEC; 500 ug CCL18 and an equimolar amount of Evasin incubated 45 min at RT in PBS, Superdex 75 in PBS, 1.5 ml/min, calibrated column; fractions on silver stained SDS-PAGE; CCL18 and Evasins also run alone. Conditions: both partners purified. (In general: Size exclusion chromatography separates by hydrodynamic size, large species first.)

The target in experiment [4] is T1, CCR3. The experiment is described as follows: radioligand binding; equilibrium competition binding of 125I-CCL18 on L1.2/CCR3 transfectants, increasing concentration of unlabelled competitor. Conditions: one partner purified.

As to B1, in the experiment with CCR3 [1], the “inhibition of CCL11-induced chemotaxis of L1.2/CCR3 transfectants by CCL18 previously incubated with a twofold molar excess of Evasin-3 (no effect of Evasin-3), IC50, n = 3” value is 446 nM; the “inhibition of CCL11-induced chemotaxis of L1.2/CCR3 transfectants by CCL18 with Evasin-3 as a control, IC50 of the experiment shown” value was determined as 421 nM; the “inhibition of migration of L1.2/CCR3 transfectants to 1 nM CCL11 (blocks CCL11-CCR3), IC50 of the experiment shown” value is 557 nM; the “inhibition of the chemotactic response of L1.2/CCR3 transfectants induced by 1 nM CCL11 (blocks CCL11-CCR3), IC50, mean of n = 7” value came out at 318 nM.

On to B2, for which the IC50 – broadly, the concentration at which inhibition is half-maximal – in experiment [2] is 9.92 nM and 7.94 nM. Also, the stoichiometry N (usually a count of units in the complex or per binding partner) in experiment [3] turned out to be 1.

Molecule B3 showed an IC50 in the experiment with CCR3 [4] of 4.99 nM.

Turning to B4, the IC50 in experiment [2] was 0.015 nM and 0.03 nM. Also, in experiment [3], the “stoichiometry N” value is 1.
